Key:
WelP1 = WelP1 (Hapalosiphon welwitschii, UniProt A0A067YVH5); test: LC-MS product formation; type: biochemical; details: co-substrate GPP; MgCl2 5 mM; Tris 50 mM pH 8.0
[1] = tested on: [C-]#[N+]/C=C\c1c[nH]c2ccccc12; test: purified protein; type: biochemical, Fischerella ambigua; details: co-substrate GPP, MgCl2 10 mM, pH 8.0

| Compound | LC-MS product formation (WelP1) | Km [1] | kcat [1] |
| --- | --- | --- | --- |
| [C-]#[N+]/C=C\c1c[nH]c2ccccc12 [(Z)-1, cis-indolyl vinyl isonitrile] | The enzymatic products derived from WelP1 and FidP1 are perfectly identical to that from AmbP1 | – | – |
| AmbP1 (Fischerella ambigua UTEX 1903) | – | 15.4 ± 3.2 µM | 6.9 ± 1.2 s⁻¹ |

Source: PMC4720564 (Chemical communications (Cambridge, England), 2016)
